According to US20250230242A1, “PHARMACEUTICAL COMPOSITION OF ANTI-TIM-3 ANTIBODY AND HYPOMETHYLATING AGENT” (NANJING SHUNXIN PHARMACEUTICALS CO., LTD. OF CHIATAI …, priority 2022, published 2025):

Key:
Daudi cells [1] = assay: ADCC against Daudi cells; type: cell-based; details: 1 or 10 μg/mL, effector cells PBMC, FIG. 3
Description: (§1) After the reaction was completed, the mixture was centrifuged, and the supernatant was collected and measured for fluorescence values at 490 nm as excitation wavelength and 515 nm as emission wavelength. The cells were lysed directly with 0.1% Triton X-100 and centrifuged, and then the supernatant was collected to determine the total fluorescence value. The lysis rate (%) was calculated based on the fluorescence value.

Daudi cells [2] = assay: CDC against Daudi cells; type: cell-based; details: 10 or 100 μg/mL, 10% human serum, FIG. 4
Description: (§2) CHO-S-HuTIM-3 cells and Daudi cells (Shanghai Cell Bank of Chinese Academy of Sciences) were inoculated into a 96-well plate. […] Finally, CCK-8 reagent (Dojindo Laboratories) was added and reacted for 4 h. The OD value was measured at a wavelength of 450 nm using a microplate reader, and the lysis rate (%) was calculated.

CHO-S-HuTIM-3 cells [3] = assay: CDC against CHO-S-HuTIM-3 cells; type: cell-based; details: 10 or 100 μg/mL, 10% human serum, FIG. 4
Description: as §2

[4] = target: T1, CHO-S-HuTIM-3 cells highly expressing human TIM-3 (Homo sapiens, UniProt Q8TDQ0); assay: Binding to cells highly expressing human TIM-3 (cell ELISA)
T1 construct: expressed in transfected cells; host or cells: CHO-S
Description: The human TIM-3 gene was transfected into CHO-S cells, and the cells were incubated in an incubator at 37° C. with 5% CO2 using a Dynamis AGT medium (containing 4 mM glutamic acid and 3 μg/mL Puromycin) to give CHO-S-HuTIM-3 cells. […] After the reaction was stopped with H2SO4, the OD value was measured at a wavelength of 450 nm using a full-function microplate reader Synergy H4. The binding EC50 was calculated based on the OD value.

CHO-S-HuTIM-3 cells [5] = assay: ADCC against CHO-S-HuTIM-3 cells; type: cell-based; details: 10 or 100 μg/mL, effector cells PBMC, FIG. 3
Description: as §1

[6] = target: T2, cynomolgus monkey TIM-3 recombinant protein (Acro) (cynomolgus monkey, UniProt A0A2K5U3G7 22-193); assay: ELISA, h50B5 coated at 2 µg/mL, cynomolgus TIM-3 titrated, Anti-His HRP
T2 construct: Bought recombinant protein; His tag implied only by the Anti-His HRP detection; also called cynomolgus monkey TIM-3 protein
T2 sequence: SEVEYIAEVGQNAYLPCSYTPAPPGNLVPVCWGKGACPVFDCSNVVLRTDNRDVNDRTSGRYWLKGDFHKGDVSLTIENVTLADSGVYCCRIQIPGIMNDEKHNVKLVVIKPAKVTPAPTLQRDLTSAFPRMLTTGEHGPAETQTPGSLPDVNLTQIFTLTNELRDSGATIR

[7] = target: T3, human TIM-3 on CHO-S-HuTIM-3 cells (human, UniProt Q8TDQ0 22-301); assay: cell ELISA on CHO-S-HuTIM-3 cells, anti-human kappa-HRP
T3 construct: whole, on cells; Human TIM-3 gene transfected into CHO-S cells; also called CHO-S-HuTIM-3 cells highly expressing human TIM-3

[8] = target: T4, human TIM-3 recombinant protein (R&D) (human, UniProt Q8TDQ0 22-200); assay: ELISA, human TIM-3 coated, h50B5 titrated, anti-human kappa-HRP
T4 construct: Bought recombinant protein; also called human TIM-3 protein

“Rituxan®: positive control for ADCC and CDC with Daudi cells as target cells” was tested, and the “ADCC against Daudi cells” value (Daudi cells [1]) was “exhibited significant ADCC” and the “CDC against Daudi cells” value (Daudi cells [2]) was “exhibited significant CDC”.

“TSR022: anti-TIM-3 antibody used as benchmark, heavy chain SEQ ID NO: 22, light chain SEQ ID NO: 23 [reference compound]” was tested, and the “CDC against CHO-S-HuTIM-3 cells” value (CHO-S-HuTIM-3 cells [3]) was “did not show significant CDC”, the “EC50 of binding to CHO-S-HuTIM-3 cells” value ([4]; FIG. 1) was 6.8155 ± 0.1662 µg/mL and the “maximum binding Emax (OD450), CHO-S-HuTIM-3 cells” value ([4]; FIG. 1, OD450) was 0.26±0.05. For the same molecule, the “ADCC against CHO-S-HuTIM-3 cells” value (CHO-S-HuTIM-3 cells [5]) was “did not show significant ADCC”.

B1: humanized anti-TIM-3 antibody h50B5 (antibody, human IgG4 S228P, kappa, V domains shown)
VH: QVQLVQSGAEVKKPGASVKVSCKASGYSFTGYTINWVRQAPGQGLEWMGLFNPYNGGTTYAQKFQGRVTMTVDKSTSTVYMELSSLRSEDTAVYYCARRYYGYDAMDYWGQGTLVTVSS
VL: DIQMTQSPSSLSASVGDRVTITCKSSQSVLYSSNQKNHLAWYQQKPGKAPKLLIYWASTRESGVPSRFSGSGSGTDFTLTISSLQPEDFATYYCHQYLSSYTFGQGTKLEIKR
notes: Humanized from mouse mAb 50B5 by CDR grafting; human IgG4 heavy chain constant region and human light chain constant region
Molecule B1 has an EC50 [6] of 1.64 µg/mL, an EC50 [7] of 1.46 µg/mL and an EC50 [8] of 0.291 µg/mL.

B2: anti-TIM-3 antibody TSR022 (antibody, human IgG4 S228P, kappa, V domains shown)
VH: EVQLLESGGGLVQPGGSLRLSCAAASGFTFSSYDMSWVRQAPGKGLDWVSTISGGGTYTYYQDSVKGRFTISRDNSKNTLYLQMNSLRAEDTAVYYCASMDYWGQGTTVTVSS
VL: DIQMTQSPSSLSASVGDRVTITCRASQSIRRYLNWYHQKPGKAPKLLIYGASTLQSGVPSRFSGSGSGTDFTLTISSLQPEDFAVYYCQQSHSAPLTFGGGTKVEIKR
notes: Benchmark antibody, prepared in the same way as h50B5
B2 gave an EC50 [7] of 6.82 µg/mL.
